From patent publication US20140378659A1

Biological target: human oxidized LDL (copper-oxidized low-density lipoprotein from plasma of a healthy individual) (human) (UniProt P04114)
Assay: cell-based or functional assay

uptake of DiI-labeled oxidized LDL into LOX-1-expressing cells (fluorescence intensity): > 90%
B1: Human-derived Del-1 (developmental endothelial locus-1), recombinant protein having a His tag added to the C-terminus (protein, not shown: small tags and cut ends)
chain: DICDPNPCENGGICLPGLADGSFSCECPDGFTDPNCSSVVEVASDEEEPTSAGPCTPNPCHNGGTCEISEAYRGDTFIGYVCKCPRGFNGIHCQHNINECEVEPCKNGGICTDLVANYSCECPGEFMGRNCQYKCSGPLGIEGGIISNQQITASSTHRALFGLQKWYPYYARLNKKGLINAWTAAENDRWPWIQINLQRKMRVTGVITQGAKRIGSPEYIKSYKIAYSNDGKTWAMYKVKGTNEDMVFRGNIDNNTPYANSFTPPIKAQYVRLYPQVCRRHCTLRMELLGCELSGCSEPLGMKSGHIQDYQITASSIFRTLNMDMFTWEPRKARLDKQGKVNAWTSGHNDQSQWLQVDLLVPTKVTGIITQGAKDFGHVQFVGSYKLAYSNDGEHWTVYQDEKQRKDKVFQGNFDNDTHRKNVIDPPIYARHIRILPWSWYGRITLRSELLGCTEEE
